Here are results for 69 sequences from the domain aggregation screens of Martell et al. (2025).
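Further: 20 min heating vs room temperature control held 20 min.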

The series can be described thus: soluble fraction after stress (log2 fold change); higher = more stays soluble; pooled small domains, quantitative proteomics. The note with it: stress: 75 degC.
With “HMGLNELQVKLNEAMQRLSLKHRTVVVMHDIEGIPHDEIAKIVGVSVGTIRSRLFYARRQLQADLGEY”, the “soluble fraction (log2)” value is -2.32.

“HMGLNNVSDILRLDFNSFKKKFDKLPSGYKNSVVEQAALMIKSGELDSIKIKDYIEKSMGIELDI”: the “soluble fraction (log2)” value is -0.511.

Regarding “HMGLQDLFLNSLRKSKTPVTMFLVKGVKLQGVVTWFDNFSVLLRRDGMSQLVYKHSISTIMP”, the “soluble fraction (log2)” value was -0.0352.

“HMGLSARIAQRIHGLRTAQRMSLEALAARSGVSRSMISLIERNEASPTAVVLEKIATGLNVVLAALFDTP”: the “soluble fraction (log2)” value was -1.76.

Regarding “HMGLSNYEFNSISQTVKEKLEQGPLTLKALVDETAHLFAEDKVVSVVQWLIDQRDLAYDDHGLLQWKG”, the “soluble fraction (log2)” value was -0.792.

On to “HMGLTLREKMGHVLEMLKGREFLPFVSLFTVEEGRIGVVVTFMSILELVKEGILDLVQTESFGPIHVKAR”, for which the “soluble fraction (log2)” value was -0.541.

With “HMGMAETTARILQLLGLLQSRRGWSGQELAERLGVTTRSVRRDVERLRELGYPVHASAGHGGGYQLGA”, the “soluble fraction (log2)” value is -2.18.

For “HMGMGDALRILFNQAMLIEREQYLQAGAYERNENPVNYANGFKAKTLNTRVGALEVAVPQTRDSAFYPSFL”, the “soluble fraction (log2)” value worked out at 0.0631.

Consider “HMGMLATFVTSAKVPDDVVYAITKEVFENLDEFKKLHPALEGLTRETMLEGLTAPIHPGALKYYKEAGLM”, for which the “soluble fraction (log2)” value was -0.533.

For the sequence “HMGMSQQKQSSTVRIIMQDISDANEGLMKMSQIIDAALAEGISETIVRNAISNLHRGGTIYESQTGTYQW”, the “soluble fraction (log2)” value was -0.196.

With “HMGMTDEELNREEERVVAELEAKDEEELTIYNEEDLTFEETLDLPEGSLMRDRENGMIYLKVLDIWMPY”, the “soluble fraction (log2)” value is -0.575.

In the case of “HMGMTNRIKELRKAKGYRQEDLAAALGVSRQTIIAVENNKYNPTLELAMKLARHLQTTVEELFQL”, the “soluble fraction (log2)” value is -2.01.

With “HMGMVEFEIGERDHSEDVSRKLFEAGLIEDASDFNQYMIEKKMDDHLQTGKYQIPKGATKDEILELIVR”, the “soluble fraction (log2)” value came out at 0.043.

For “HMGMYAEERHQAIASLARKHGRVSVAELAERFNVTSETIRRDLDSLARRGLLTRVHGGAVPVE”, the “soluble fraction (log2)” value is 0.0144.

On to “HMGMYFTEMRKNEGLIALNGVAESNKRVSDLMDNLKDSSSFDAADIKAVKSGSGDASSLMDFELLVT”, for which the “soluble fraction (log2)” value was -0.0643.

As to “HMGNASQAARRQRIVDAALELLQDRPYDQIQMRDVAEGAGVALGTLYRYFPSKEQLFAHVLVE”, the “soluble fraction (log2)” value was -0.286.

For the sequence “HMGNEMQVPNVAGKTVDEAIEIFNNMGLKVAAENKYAQSDDVKEGDVVKTDPSSGRNVKKGSEITLYISQG”, the “soluble fraction (log2)” value amounted to 0.375.

Consider “HMGNEVMYRQDLSEQELLSFIKKYTGQDEVTHIVVGAPKQRDNTPSPVETKITPFVVQLKAQFPDVNVV”, for which the “soluble fraction (log2)” value came out at 0.0976.

With “HMGNFNDMLKYLRVREKMSQAELADKLGVSKSTVGMYELGKREPDFETLEAIADLFNVDMNFLLGK”, the “soluble fraction (log2)” value is -0.423.

Take “HMGNHMSFKMWGEQLQEAFRALETYDTQKAKTILNELVRFPIDSDITKALKGIISNIDDMMA”: the “soluble fraction (log2)” value was -0.881.

In the case of “HMGNLPPAVINARIKVSPAGRGVFVGFDKGSTSTEAKYADAIRGYLPNIEFNKDDHESVVTVPFNFR”, the “soluble fraction (log2)” value is -0.0124.

In the case of “HMGNTLAYSEFRQKVQEGAVKQVVLSEDRVTGELTNGDRFTANIVRDPELLKMLNDNNVKYDGKPT”, the “soluble fraction (log2)” value worked out at 0.154.

Take “HMGNVGEAIEALVKGFQEGNQFQTLLGVTGSGKTFTMANVIAALNKPTLIISHNKTLAAQLYLSLIHIS”: the “soluble fraction (log2)” value was 0.277.

Turning to “HMGNYRVIKWGMQGDDVKLMQQMLINRGYVLSATGKYASRTLKAIMAFQEANGLKADGIVGKRTWNKLL”, the “soluble fraction (log2)” value was -2.78.

Consider “HMGPAYEKIVANGQTFYRYNVKKGEGLMAVSRTFNVSVNDILKYNPSAASGLKDGQELLIPVIDDA”, for which the “soluble fraction (log2)” value is 0.16.

With “HMGPESKLTDAIKDYIYALYENLKGKSKFRNTIIEEVKKLYGVDISRESIRRVVNQKTDAETTENDDDEKA”, the “soluble fraction (log2)” value stood at 0.432.

For “HMGPKALLKIPGLQEVDAELLFKEGYKSISAVASADPEMLKAIPGVDEQKVTEWVTGAEQILSQQVNKGA”, the “soluble fraction (log2)” value amounted to 0.49.

Regarding “HMGPKPVDMSPIPEGQRNQVLHDWMYGRAANHPENWGQIRSDALERGLKSGLKADEIHAITGSVARALGLE”, the “soluble fraction (log2)” value is 0.0169.

Regarding “HMGPNPLTEREQEILQLARTGEPVARLAKRLFLSPGTVRNHLSSAIGKLGAANRVEAAQFATERGW”, the “soluble fraction (log2)” value was 0.0399.

Turning to “HMGPSLDAVREQIRDLIAEEDKSAPYSDLSLVAELEKRGIHISRRTIAKYRGEMGIPNSDQRRYF”, the “soluble fraction (log2)” value was -0.0939.

Regarding “HMGPSSIVVYVSGAVKTPGVYTLAPGSRVDDAVRAAGGLSERAESAGTNLAAQLSDGEHVHVAAAGE”, the “soluble fraction (log2)” value was determined as 0.0915.

For the sequence “HMGPTGGLTPHIAIADKRASEAIEFYKQAFGAVEQVRMPAEDGVRLMHAHLLVNGSSLMMHDDFPEYSGQ”, the “soluble fraction (log2)” value was 0.133.

On to “HMGPTLSPAEKRVFEVIPYDAILQDMVIRAAELPPGEVLAALTTLELKGLIKRLPGNLVMRRAR”, for which the “soluble fraction (log2)” value is -0.294.

Consider “HMGPVALGVTDGATYFSSVTITFRRGTAVLDGEPIASGHTVYKSGAHSLTLTAGGKTRTIAFTMDT”, for which the “soluble fraction (log2)” value was -4.04.

Turning to “HMGPVPLASAADMEKFYSHLQQVLDEVDFKDRTGSGHLMARLRRLFQRTVLDQNEINILRGILMAVQGRR”, the “soluble fraction (log2)” value is -3.03.

On to “HMGQGAASAPLRELGVDPVSEKQMVLKDGRFGPYVTDGETNASLRKGDEVETITDERASELLQMRRDAGPS”, for which the “soluble fraction (log2)” value was -0.139.

For “HMGQISDDGALKKLASEVLAANPQALADWKAGKQQAVSFLVGQAMKASKGRGDAALLGELIRAALD”, the “soluble fraction (log2)” value stood at 0.2.

With “HMGQKASEVEKIFVELQQQIIRGDLPPGYRLVESQIAAQFGVSRTPARLAIERLATAGLVAHETNRGATVH”, the “soluble fraction (log2)” value is -0.823.

“HMGQKNEDESLAKFYVHKKGNQYGPYSLIQIREYLKNNSFSLDDLASWDGQSWKKISQIPNLN”: the “soluble fraction (log2)” value is 0.12.

“HMGQLTDKQILLFSGKLAYEPTFASKYSKAGESYDDFIIRISGDLTDPKKIKEYSPYLKELGF”: the “soluble fraction (log2)” value is -0.35.

Turning to “HMGQNYTIVKGDSLWKIAQKQYGDGSQWKKIYDANKDAIESAAKKYGKKSSDSGKWIYPGVSLII”, the “soluble fraction (log2)” value was -0.112.

As to “HMGQVEVPDVVGMTQERAITTLTEAKLVAQIQLTPADVAKGLVAAQSPRAGLKIGEGSFVTIEVSTGPVI”, the “soluble fraction (log2)” value was -0.306.

As for “HMGQVFEGTFNRKANGKNSVTPAEGGEPVFIAERNSLHAMNGDLVKVSLLAKKKHQPREAQVIEILKRSD”, the “soluble fraction (log2)” value was determined as 0.128.

Consider “HMGQVPPLTRRETEIARLVSRGLSNKEIASTLVISPRTAEGHVEHILDKLGFSSRTQIATWLNEQTRNGK”, for which the “soluble fraction (log2)” value is -0.14.

For “HMGRDWKTDLLNLATARGWGDVSYEVTGEGPDHARVYTAVAIVANQKTGTGVGPSKKEAERLAAEQAYRML”, the “soluble fraction (log2)” value is -0.099.

As for “HMGRELSDLELSLLRILDDKIPLLIDEAADRLQLPVAQVLSAVTIMEIDGLIRREGMRKYLRTVEVEETK”, the “soluble fraction (log2)” value is -1.63.

With “HMGRFAETVEHIVAAQLARRQGIPTMEQFASFFNVSRATFQRRLGEEGETLEQIKQRVRLRLALELLHP”, the “soluble fraction (log2)” value was -3.1.

“HMGRGAAKGPLKELGLDPVTGRPLVVKDGKFGMYVTDGETNAGLRRGDLVEQLTLDRGMELLAERRARADQ”: the “soluble fraction (log2)” value amounted to 0.201.

Consider “HMGRKIDDPSSMTGAEKAAVILLALGDEQRQLWEMMDDEEIRVVSQAMVNLGNVTSGAVEKLIMEFVGSMS”, for which the “soluble fraction (log2)” value was -0.37.

For the sequence “HMGRKPATTIPLQVRNAVLDLYRTKYYGANFQHYTELLHEHEGIRISTSSVAKILEAEYILSPK”, the “soluble fraction (log2)” value was -1.58.

For the sequence “HMGRKPVSPEIVERVLQLAKSNPDWGYEHIAGTMRYLGYNVSATTIRHILEANGIVPDPERRL”, the “soluble fraction (log2)” value was -0.464.

Take “HMGRMSLDEAKAVILPIGEHKGHTMGEVLAIKPGLIDFYASQKFNSGKYPYLKEAAQVILENQG”: the “soluble fraction (log2)” value was -0.0288.

“HMGRRERKKLQSRRAIIEAAVTEFKEKGFREASVADIMTRADLGLGTFYNYFQSKEDILMSLLS”: the “soluble fraction (log2)” value was -0.0594.

In the case of “HMGRRRAAPQEPLRQFPASPVTGQPIKLLLGQYGPYVTDGTTNASLPKGSSPDELTFEQATQLLAERALRG”, the “soluble fraction (log2)” value was found to be 0.0333.

Turning to “HMGRSARVQQAVHQAVRALLEENDGERSALSVPLVAERAGVNSSTIYRRWGDLPRLLAAVASN”, the “soluble fraction (log2)” value was -0.686.

As for “HMGRTVKGVNFVGLRDAGDPVDLAEIYSKEGADELVFLDITATHEKRKTLLDLVTRVAERINIPFTVGGGI”, the “soluble fraction (log2)” value came to 0.056.

For “HMGSALLEAGADDAGQRLDQWLAAKLGPSISRSRVQALIKQGAVLVGGKPAGEAKRKLVAGDVVSVALPEP”, the “soluble fraction (log2)” value came out at 0.0393.

As for “HMGSDLVAWAQTRIGRHPEEAADVIAALIDRHGEARVRAASRSLLARKFAHASDLRTAIDAAIG”, the “soluble fraction (log2)” value was -0.365.

For the sequence “HMGSEEMLGALGVVERATDDGDWWIAVHGEHWRARSAQALVPGDRVRVARIDGLTLTVTPIA”, the “soluble fraction (log2)” value is -0.632.

Regarding “HMGSEGVKVEDTIGMSEAEATATLGKSGFVVNKTESHDPYIKAGNVITQSPAAGSKAPKGTTVTLTISLGP”, the “soluble fraction (log2)” value was found to be 0.404.

For the sequence “HMGSEISYSEFLNRVEQGQVAAVRLDGEQIFITGPTGEAYQTIQPRNTDVLPDLREAGVEIQAAPQ”, the “soluble fraction (log2)” value stood at 0.22.

On to “HMGSEYPSNPLASRWAKGVRLYHDEWGYGVIQAARGSEPDDYVITVRFESGAEKSFLPKFQAHSLMIVKD”, for which the “soluble fraction (log2)” value is -1.21.

As for “HMGSGQVTLPDLEGKSMKEVARILSQLGLHLSPDGHGLAFKQSPAAGTRVPVGSTIKVSFQPL”, the “soluble fraction (log2)” value was -0.164.

Consider “HMGSKKAIPYVSGMSETEAQNELEEAGFKVTSSFQYDDSVESGKVISTTPEAGTKAEKGSTVTMLVSQGSN”, for which the “soluble fraction (log2)” value is 0.0103.

As to “HMGSLVQTAMQAVTKHIHDNAMRVGDTLPGEGHFAETLGVSRAVMREAFGALAALKLIDVGNGRKPRVGR”, the “soluble fraction (log2)” value was -1.33.

For the sequence “HMGSNATIKYAIKGDESLVQVAQKFNVTVSELRSWNNISAFENAKTGQELVINVPASKYETYFALANT”, the “soluble fraction (log2)” value turned out to be 0.403.

“HMGSNLSFDLSQIIASRYQEKAAELGLTAPSLARTDLSPQEQATAEVVARAIIADYYDQRVAPFNDLIPQ”: the “soluble fraction (log2)” value is -0.631.

In the case of “HMGSNRPLALGDVVRIEGSKTLGTILELNAKDAVVALGALKTTLPLSRIHHASSQESQRLKRQATQAPLR”, the “soluble fraction (log2)” value was -0.203.

Turning to “HMGSPKLVIKNGQVDYQVLKKEKLDLLELTSLLRGQNTFSIREIEYAIIEPNGVITVIKKPEYQSVVKGDL”, the “soluble fraction (log2)” value is -0.43.
